Test results published in patent US8357518B2, “Thermostable enzymes for the hydrolysis of mannan-containing polysaccharides” (The Board of Trustees of the University of Illinois, priority 2010, dated 2013).

Legend:
Test in all cases: Catalytic efficiency with oligosaccharides, HPAEC (Man5A-TM2)
Format in all cases: biochemical, Caldanaerobius polysaccharolyticus
Conditions in all cases: other: Man5A-TM2 0.3 μM, oligosaccharide 30 μM, citrate buffer 50 mM, pH 5.5, 5 min, triplicate
[1] = substrate: OC[C@H]1O[C@@H](O[C@H]2[C@H](O)[C@H](O)[C@H](O[C@H]3[C@H](O)[C@H](O)[C@H](O[C@H]4[C@H](O)[C@H](O)C(O)O[C@@H]4CO)O[C@@H]3CO)O[C@@H]2CO)[C@@H](O)[C@@H](O)[C@@H]1O
Description: (§1) Cloning, expression, and purification of Man5A-TM1, Man5A-TM2 and Man5B. C. polysaccharolyticus was cultured in TYG medium and DNA was isolated from mid-log cultures and purified using the Qiagen DNeasy Blood and Tissue kit with an integrated RNase treatment step. The genome of C. polysaccharolyticus was partially sequenced by the W. M. Keck Biotechnology Center at the University of Illinois at Urbana-Champaign. A Newbler assembly was generated which is comprised of ½ plate of FLX PE 454 data and ½ plate of 8 kb paired-end GSFLX Titanium data using a Genome Sequencer instrument from 454 Life Sciences (Branford, Conn.). The partial genome sequence was uploaded onto the Rapid Annotation using Subsystem Technology (RAST) server (Aziz et al., BMC Genomics, 9:75, 2008). Auto-annotation of the C. polysaccharolyticus partial genome sequence identified ORF0760 as a gene predicted to encode a bifunctional β-D-mannanase/endoglucanase (Man5B). Man5A was previously identified in a recombinant phage library of C. polysaccharolyticus genomic DNA, which was screened for endoglucanase activity (Cann et al., J Bacteriol, 181:1643, 1999) and the full sequence of this gene was also identified in the partial genome sequence for C. polysaccharolyticus.
(§2) The DNA sequence corresponding to man5B was amplified by the PicoMaxx high fidelity PCR kit using genomic DNA as the template with the primer set Man5B-Forward and Man5B-Reverse (Table 1-1). The primers were engineered to incorporate a 5′-[…] (SEQ ID NO: 54) extension in Man5B-F and a 5′-[…] (SEQ ID NO: 55) extension in Man5B-R, which facilitated subsequent directional cloning. The resultant man5B amplicon was then digested with T4 DNA polymerase exonuclease activity, annealed with a similarly digested pET-46b vector and introduced into E. coli JM109 by electroporation. Man5A-TM1 was amplified using genomic DNA as template with primers Man5A-TM1-F and Man5A-TM1-R (Table 1-1). The primer sets for Man5A-TM1 and Man5A-TM2 were designed to include 5′-NdeI and 3′-XhoI restriction sites for subsequent directional cloning. The resulting amplicons were then cloned into the pGEM-T vector via TA-cloning and subcloned in-frame with the hexahistidine (His6) encoding sequence of a modified pET-28a expression vector via its NdeI-XhoI polylinker site. The truncated protein Man5A-TM2 originally named ManA-SLH-CBD was cloned as described in a previous study (Cann et al., J Bacteriol, 181:1643, 1999). Expression of each of the resulting gene constructs yielded fusion proteins containing an N-terminal polyhistidine tag sequence to facilitate affinity purification via metal chelate chromatography. The resulting plasmid constructs pET46-Man5B, pET28a-Man5A-TM1, and pET-28a-Man5A-TM2 were sequenced to confirm the integrity of the cloned genes (W. M. Keck Center for Comparative and Functional Genomics at the University of Illinois at Urbana-Champaign).
(§3) The plasmid constructs were then introduced into E. coli BL-21 CodonPlus (DE3) RIL competent cells by heat shock, and grown overnight in lysogeny broth (LB) agar medium supplemented with ampicillin (100 μg/mL) and chloramphenicol (50 μg/mL) at 37° C. After 12 h, single colonies were selected and used to inoculate fresh LB (10 mL) supplemented with the antibiotics above at the same concentrations, followed by culturing with aeration for 8 h at 37° C. The pre-cultures were then inoculated into fresh LB (1 L) supplemented with ampicillin and chloramphenicol and the cultures were incubated at 37° C. with vigorous aeration (225 rpm/min). The cultures were grown to an optical density of 0.3 at 600 nm, and the temperature was shifted to 16° C. and gene expression was induced by the addition of 0.1 mM isopropyl β-D-thiogalactopyranoside (IPTG). […]

[2] = substrate: OC[C@H]1O[C@@H](O[C@H]2[C@H](O)[C@@H](O)[C@H](O[C@H]3[C@H](O)[C@@H](O)[C@H](O[C@H]4[C@H](O)[C@@H](O)C(O)O[C@@H]4CO)O[C@@H]3CO)O[C@@H]2CO)[C@H](O)[C@@H](O)[C@@H]1O
Description: as §1, §2, §3

[3] = substrate: OC[C@H]1O[C@@H](O[C@H]2[C@H](O)[C@H](O)[C@H](O[C@H]3[C@H](O)[C@H](O)[C@H](O[C@H]4[C@H](O)[C@H](O)[C@H](O[C@H]5[C@H](O)[C@H](O)[C@H](O[C@H]6[C@H](O)[C@H](O)C(O)O[C@@H]6CO)O[C@@H]5CO)O[C@@H]4CO)O[C@@H]3CO)O[C@@H]2CO)[C@@H](O)[C@@H](O)[C@@H]1O
Description: as §1, §2, §3

[4] = substrate: OC[C@H]1O[C@@H](O[C@H]2[C@H](O)[C@H](O)[C@H](O[C@H]3[C@H](O)[C@H](O)[C@H](O[C@H]4[C@H](O)[C@H](O)[C@H](O[C@H]5[C@H](O)[C@H](O)C(O)O[C@@H]5CO)O[C@@H]4CO)O[C@@H]3CO)O[C@@H]2CO)[C@@H](O)[C@@H](O)[C@@H]1O
Description: as §1, §2, §3

[5] = substrate: OC[C@H]1O[C@@H](O[C@H]2[C@H](O)[C@@H](O)[C@H](O[C@H]3[C@H](O)[C@@H](O)[C@H](O[C@H]4[C@H](O)[C@@H](O)[C@H](O[C@H]5[C@H](O)[C@@H](O)C(O)O[C@@H]5CO)O[C@@H]4CO)O[C@@H]3CO)O[C@@H]2CO)[C@H](O)[C@@H](O)[C@@H]1O
Description: as §1, §2, §3

[6] = substrate: OC[C@H]1O[C@@H](O[C@H]2[C@H](O)[C@@H](O)[C@H](O[C@H]3[C@H](O)[C@@H](O)[C@H](O[C@H]4[C@H](O)[C@@H](O)[C@H](O[C@H]5[C@H](O)[C@@H](O)[C@H](O[C@H]6[C@H](O)[C@@H](O)C(O)O[C@@H]6CO)O[C@@H]5CO)O[C@@H]4CO)O[C@@H]3CO)O[C@@H]2CO)[C@H](O)[C@@H](O)[C@@H]1O
Description: as §1, §2, §3

B1: Caldanaerobius polysaccharolyticus endo-β-mannanase Man5A truncation mutant Man5A-TM2, SEQ ID NO: 29 (Caldanaerobius polysaccharolyticus) (protein)
chain: AGTSGDGRFHVVGNKIVDPDGKDFIIKGVNIQGYRSWEKRSVLQDVHLIADVWKFNTVRLNCFIGQNNWGEGTGANNDIDAIIKAFTAKKVVVEIDLHDTTGYPPLSNPPPAPGQPSLDQAIAWFKELAAKYKDNPYVWFNTMNEPGSSTAPLDPQWKVANEEIIKAIRSTGADNIIVVDGWSYANEGIEQNTPTVDEKRSAVLTYGQDLLNADSAKNTIFAFHNYNEGDIQKKVEDYIDRANAKGLYVFMEEYGKDYSDAAKEGVKSGLQAVMNKGAGRIYWNWDGYDLYDLTSGTGRGSGWEINKTDGSKPTNLSWVGDKIWDDNHGITPTFDDQNPKVDLALERLIANNNGFKAGDKVQFTTFLRNSGDLPIGKDSKVVVKFYVDGVQLGDPVEISGGIAVGQRIPVTSPELTVSKTDFTVKAVIDSSSTYADGAEDAVIENNWIEAAFNSTAPSSGYELVVTGIKITPDTVKEGDYVQAQVTVANQGPEATPVTNIIGWFYVNGYYYTLDDAAKSCAEQDNVTLKPGESITLSTKVKYRAAAPFNFSFVLENLYADDQNQSNNSITVNVPVK
- kcat/Km [1]: 11000 ± 1000 M⁻¹ s⁻¹
- kcat/Km [2]: 1800 ± 500 M⁻¹ s⁻¹
- kcat/Km [3]: 28000 ± 8000 M⁻¹ s⁻¹
- kcat/Km [4]: 12000 ± 2000 M⁻¹ s⁻¹
- kcat/Km [5]: 2200 ± 300 M⁻¹ s⁻¹
- kcat/Km [6]: 25000 ± 8000 M⁻¹ s⁻¹
